Columns and labels:
[1] = 14C assay with IPTG-induced recombinant E. coli cells: 14CO2 captured from [14C]-carboxyl-labeled dicamba; settings: for Enzymatic Detection level: dicamba decarboxylation activity of the protein of the given SEQ ID NO, High / Low / No; for Dicamba Decarboxylase Activity: induced recombinant E. coli cells, [14C]-carboxyl-labeled dicamba, 14CO2 capture
[2] = Saturation mutagenesis of SEQ ID NO:109: dicamba decarboxylation activity of point mutants (carbon dioxide released); settings: decarboxylation activity (carbon dioxide released) of point mutant compared with unmutated backbone protein; backbone SEQ ID NO: 109
[3] = Shuffled variant libraries: 14CO2 capturing assay in 384-well format; settings: decarboxylation activity (carbon dioxide released) compared with unmutated backbone protein SEQ ID NO 133 (DDEC0201)

Row | Molecule | Enzymatic Detection level [1] | Dicamba Decarboxylase Activity [1] | Fold Activity [2] | Fold Activity [3]
1 | 24 (protein, Aspergillus niger) MALGKVVLEEAYERPNMKEKSNHEAGLYIAPNDRPRYMRQINDINQERLKLADAHGVGYTIISLTVPGIQGIFDKTEAERVATETNNWAAEQIKNHRDRLGAFACLSMHDPAQAANELRRCVQELGFHGALLCSFQHAGPDGETYLFYDQPKYDVFWKALTELDVPLYIHPAAPTGSILERLYAQRPALIGPPLSFANDVSLHTLGIISNGVFDRFPNLKIIIGHLGEHIPFDFWRIDHWFRDVKKPIADEEGRVMAQKSLYHYFKHNIWLTTSGHFSTPTLKYVVNEIGVDRVLFSVDYPYETTESGCNWWDHDKDAIVEAVGGVDNYYAIGRENAKKLLRLDKFHDSDAR | Low | Low | 1.6 | 
2 | 15 (protein, listed as Metarhizium anisopliae) MAQEIAKSHETSTRFAGFAVLPMRDPEAAAKELERAVKKLGFVGALVDHKTAHGNGFCEGNEYDVLWRKAEQLAVPIYLHPSWPTEKQFQQAYAGNYSPTAAGTIGGAMFNWHSEVGHHVLRLYAAGVFDKFPKLKIIIGHFGEMIPYMLDRIREQDHRLGKTGRTFSEVYDENIWITTSGVWSLDPMRCILANTKIDHILYSVDYPFTMNERGLEWFQELEKSGLLSEEDLALIAYKNCEKLLGVKAPTQD | Low | Low | 1 | 
3 | 18 (protein, listed as Legionella pneumophila) MAIVDFETHFITEACIDYLTQRQEVPKLVPELNGAYTMCFTPDVSLFHTSALMEELLSLNEQRLAIMDQAGVTIQVLSLTTINGIDSCPGDENKSTALAREVNDQLYSAIQKHPERFKGFASISPYDVKEGVKELERAISQLGFVGWLTHSNFGQDNYLDDKIYWPLLEAAESLNIPIYLHPNVPIMREFGKYGFALGGSALGFEFDTALCLMRMILGGVFDAFPKLKIMLGHLGETMPFLMERLDHLYRIPDLKPYRPSIQRIPSEVLRQNVYITTSGRFFVPALRYVLEVMGEDRVLFASDYPMESLLDATRFIQDSDLSNQTKQKIFSINAKNLNLI | Low | Low | 1.2 | 
4 | 20 (protein, listed as Legionella pneumophila) MAIVDFETHFITEACIDYLTQRQEVPKLVPDLNGAYTMCFTPDVSLFHTSALMEELLSLNEQRLAIMDQAGVTIQVLSLTTINGIDSCPGDENKSTALAREVNDQLYSAIQRHPERFKGFASISPYDVKEGVKELERAISQLGFVGWLTHSNFGQDNYLDDKTYWPLLEAAEGLNIPIYLHPNVPIMREFGKYGFALGGSALGFEFDTALCLMRMILGGVFDAFPKLKIMLGHLGETMPFLMERLDHLYRIPDLKAYRPSIQRIPSEVLRQNVYITTSGRFFVPALRYVLEVMGEDRVLFASDYPMESLLDATRFIQDSDLSNQTKQKIFSINAKNLNLI | Low | Low | 1.8 | 
5 | 27 (protein, listed as Aspergillus oryzae) MALGKIALEEAFALPRFEEKTRWWASLFSTDAETHVKEITDINKIRIEHADKHGVGYQILSYTAPGVQDIWDPVEAQALAVEINDYIAEQVRVNPDRFGAFATLSMHNPKEAADELRRCVEKYGFKGALVNDTQRAGPDGDDMIFYDNADWDIFWQTCTELDVPFYMHPRNPTGTIYEKLWADRKWLVGPPLSFAHGVSLHVLGMVTNGVFDRHPKLQIIMGHLGEHVPFDMWRINHWFEDRKKLLGLAETCKKTIRDYFAENIWITTSGHFSTTTLNFCMAEVGSDRILFSIDYPFETFSDACEWFDNAELNGTDRLKIGRENAKKLFKLDSYKDSSA | No | No | 1 | 
6 | 123 (protein, Dicamba decarboxylase variant clone: S03902153) MAQGKVALEEHFAIPETLQDSAGFVPGDYWKELQHRLLDIQDTRLKLMDAHGIETMILSLAAPAVQAIPDRRKAIEIARRANDVLAEECAKRPDRFLAFAALPLQDPDAATEELQRCVNDLGFVGALVNGFSQEGDGQTPLYYDLPQYRPFWGEVEKLDVPFYLHPRNPLPQDSRIYDGHPWLLGPTWAFAQETAVHALRLMASGLFDEHPRLNIILGHMGEGLPYMMWRIDHRVAWVKLPPRYPAKRRFMDYFNENFHITTSGNFRTQTLIDAILEIGADRILFSTDWPFENIDHASDWFNATSIAEADRVKIGRTNARRLFKLDGA | High |  | 1.3 | 
7 | 276 (protein, Dicamba decarboxylase variant) MAQGKVALEEHFAIPETLQDSAGFVPGDYWKELQHRLLDIQDTRLKLMDAHGIETMILSLAAPAVQAIPDRRKAIEIARRANDLLAEECAKRPDRFLAFAALPMQDPDAATEELQRCVNDLGFVGALVNGFSQEGDGQTPLYYDLPQYRPFWGEVEKLDVPFYLHPRNPLPQDSRIYDGHPWLLGPTWAFAQETAVHALRLMASGLFDEHPRLNIILGHMGEGLPYMMYRIDHRIAWVKLPPRYPAKRRFMDYFNENFHITTSGNFRTQTLIDAILEIGADRILFSTDWPFENIDHAADWFNATSIAEADRVKIGRTNARRLFKLDGA |  |  |  | 1.0
8 | 277 (protein, Dicamba decarboxylase variant) MAQGKVALEEHFAIPETLQDSAGFVPGDYWKELQHRLLDIQDTRLKLMDKHGIETMILSLAAPAVQAIPDRRKAIEIARRANDMLAEECAKRPDRFLAFAALPLQDPDAATEELQRCVNDLGFVGALVNGFSQEGDGQTPLYYDLPQYRPFWGEVEKLDVPFYLHPRNPLPQDSRIYDGHPWLLGPTWAFAQETAVHALRLMASGLFDERPRLNIILGHMGEGLPYMMYRIDHRIAWVHEPPRYPAKRRFMDYFNENFHITTSGNFRTQTLIDAILEIGADRILFSTDWPFENIDHATAWFNATSIAEADRVKIGRTNARRLFKLDGA |  |  |  | 0.9
9 | 274 (protein, Dicamba decarboxylase variant) MAQGKVALEEHFAIPETLQDSAGFVPGDYWKELQHRLLDIQDTRLKLMDAHGIETMILSLAAPAVQAIPDRRKAIEIARRANDFLAEECAKRPDRFLAFAALPMQDVDAATEELQRCVNDLGFVGALVNGFSVEGDGQTPLYYDLPQYRPFWGEVEKLDVPFYLHPRNPLPQDSRIYDGHPWLLGPTWAFAQETAVHALRLMASGLFDEHPRLNIILGHLGEGLPYMMYRIDHRIAWVKLPPRYPAKRRFMDYFNENFHITTSGNFRTQTLIDAILEIGADRILFSTDWPFENIDHAADWFNATSIAEADRVKIGRTNARRLFKLDLD |  |  |  | 1.0
10 | 275 (protein, Dicamba decarboxylase variant) MAQGKVALEEHFAIPETLQDSAGFVPGDYWKELQHRLLDIQDTRLKLMDAHGIETMVLSLAAPAVQAIPDRRKAIEIARRANDMLAEECAKRPDRFLAFAALPLQDPDAATEELQRCVNDLGFVGALVNGFSQEGDGQTPLYYDLPQYRPFWGEVEKLDVPFYLHPRNPLPQDSRIYDGHPWLLGPTWAFAQETAVHALRLMASGLFDEHPRLNIILGHMGEGLPYMMYRIDHRIAWVHEPPRYPAKRRFMDYFNENFHITTSGNFRTQTLIDAILEIGADRILFSTDWPFENIDHAAAWFNATSIAEADRVKIGRTNARRLFKLDGA |  |  |  | 1.0
11 | 17 (protein, Aspergillus niger) MARGKIALEEAFEVKGMDEEIDAQAALYIAPKDVERYKRQIVSITDERLQLSDQNGIGYSILSLTVPGIQGITDKDKAEKRARDVNNYIHDQIKDHRDRLGAFAALSMHDPRQAGHELRRCVKELGFHGALLNDVQHTGEGDDDQPLFYDQPDYDEFWRVAVELDVPVYLHPAAPLRDTLIYKQSYEDRKYLVGPPQSYCNGVALHLMGIIVNGVFDRFPNLKVIVGHMGERIPFDFWRMDHWVKGVTRPLAEKNGDTVCQKEPLYYFKRNIYITTSGHFSTQNLRYLYEWLGDERMMFSVDFPYERMEHGCQWYDDDAEKIKEALGGRDGYLRVGRDNARRLFKLTKFKDCDAV | Low | Low | 1.8 | 
12 | 23 (protein, listed as Aplysina aerophoba) MAIDIDARSQPGLETARRAMSRRDFLGGAAAFGITAAATTALPASTAAGEEEDLFLLGLEEHFATAELRRLNGIQFPQGTPRFDINDVGAGRIADMDAAGIDIQVLSALTPGAQNLPGAEGVAYARRLNSWVAHEVIPAYPGRFRAFATLPLSEPQAAADELEYAVRELGFLGCMTYGAVDGKFLDHADFVPVLARAETLDVPIYIHPNWASPQVMDTYYNGLGNEWVSRVLSGAGYGWHQEVALQCLRMIASGVFDRFPRLQIIVGHMGEGLPFFYWRFGDDLARITADTLEKPVQQYFHDNFWITTSAFFRDELLRLVLSVMGEDRVMFAVDYPFVSNKVGADWFRAVDLPRNVKEKIAHKNAERLLKIGPF | Low | Low | 1.5 | 
13 | 14 (protein, listed as Talaromyces marneffei) MARGKVSFEEAYEIPALADKSREQAALYIAPKDLDRYLSEIKSPTGGRLDISNKNGIGYTIYSLTVPGVQGIADKAKAEKHATDVNNWIYNEIKDHRDRMGAFAALSMHDPVQAGQELERCVKKLGFHGALLNNWQHAGTDGETYIFYDHPSYDVFWQKCVELDVPVYLHPSAPSGKVFDTFFKDRRYLIGPPISFAQDVALHTMGLITNGVFDRNPKLKLILGHLGERIPQDLWRTNHWLEDVERPLADSRGDTMSRKPLLYYFKNNIYVTTSGHFSTETVKFVCDYFGADRILFSVDSPYEKIEEGAGWYDKDKDNLTKALGGPQQYLDVGRENAKKLFKLGKYHDCDA | Low | Low | 1 | 
14 | 25 (protein, listed as Acidovorax avenae) MAQGKIGLEEHFAIPETLQDSAGFVPGDYWKELSLRLLDIHERRLREMDENGMEMMILSLNAPAVQAIPDTKKAVEIAVRANDFLAEQVARRPDRFQAFAALPMQDPDLATRELERCMQDLGFRGALVNGFSQVGTPENVVYYDAPQYGDFWAAVERLDAPFYLHPRNPIASWAQIYQGHPWLMGPTWAFAQETAVHALRLMASGLFDRHPGLRIILGHLGEGLPYNMWRVDHRNAWVDMPKGYPAKRKLCDYFHENFYLTTSGNFRTQTLIDALLEVGADRILFSTDWPFENVDHAAHWFDDAAISEADRLKIGRTNALSLFKLPQG | Low | Low | 1 | 

From patent US20160053277A1, “Compositions Having Dicamba Decarboxylase Activity and Methods of Use” (PIONEER HI-BRED INTERNATIONAL, INC., priority 2013, published 2016)
